Target: the molecule itself
Assay: mass photometry; TWOMP (Refeyn), room temperature, 1X PBS with 1 mM β-mercaptoethanol, proteins at 10 nM-400 nM; hALDH2 with NAD+, with or without mcGAS; tetramer formation

B1: His-ALDH2, purified full-length human ALDH2 (enzyme, UniProt P05091 18-517, looked up)
chain: SAAATQAVPAPNQQPEVFCNQIFINNEWHDAVSRKTFPTVNPSTGEVICQVAEGDKEDVDKAVKAARAAFQLGSPWRRMDASHRGRLLNRLADLIERDRTYLAALETLDNGKPYVISYLVDLDMVLKCLRYYAGWADKYHGKTIPIDGDFFSYTRHEPVGVCGQIIPWNFPLLMQAWKLGPALATGNVVVMKVAEQTPLTALYVANLIKEAGFPPGVVNIVPGFGPTAGAAIASHEDVDKVAFTGSTEIGRVIQVAAGSSNLKRVTLELGGKSPNIIMSDADMDWAVEQAHFALFFNQGQCCCAGSRTFVQEDIYDEFVERSVARAKSRVVGNPFDSKTEQGPQVDETQFKKILGYINTGKQEGAKLLCGGGIAADRGYFIQPTVFGDVQDGMTIAKEEIFGPVMQILKFKTIEEVVGRANNSTYGLAAAVFTKDLDKANYLSQALQAGTVWVNCYDVFGAQSPFGGYKMSGSGRELGEYGLQAYTEVKTVTVKVPQKNS
notes: aldehyde dehydrogenase 2 (ALDH2), human, full-length gene, codon-optimised, in pET28a; Two preparations: likely apo hALDH2, and tetrameric hALDH2 isolated by SEC after incubation with 1 mM NAD+; Tetramer forms with NAD+ (mass photometry); also called hALDH2; bacterially purified ALDH2 proteins; source: E. coli Rosetta (DE3), purified (Ni Sepharose, Q column, SEC); not shown: His6, N-terminal, kept
  stoichiometry N: 4

Source: paper PMC12697864, “cGAS Inhibits ALDH2 to Suppress Lipid Droplet Function and Regulate MASLD Progression” (Advanced Science, 2025)
